Reference: patent US20080085860A1 (Eli Lilly, published 2008)
* marks the point of attachment. Hexanoyl = CCCCCC(=O)*

Target: T1, Rat VPAC1 receptor (rat, UniProt P30083 31-459)
T1 sequence (looked up): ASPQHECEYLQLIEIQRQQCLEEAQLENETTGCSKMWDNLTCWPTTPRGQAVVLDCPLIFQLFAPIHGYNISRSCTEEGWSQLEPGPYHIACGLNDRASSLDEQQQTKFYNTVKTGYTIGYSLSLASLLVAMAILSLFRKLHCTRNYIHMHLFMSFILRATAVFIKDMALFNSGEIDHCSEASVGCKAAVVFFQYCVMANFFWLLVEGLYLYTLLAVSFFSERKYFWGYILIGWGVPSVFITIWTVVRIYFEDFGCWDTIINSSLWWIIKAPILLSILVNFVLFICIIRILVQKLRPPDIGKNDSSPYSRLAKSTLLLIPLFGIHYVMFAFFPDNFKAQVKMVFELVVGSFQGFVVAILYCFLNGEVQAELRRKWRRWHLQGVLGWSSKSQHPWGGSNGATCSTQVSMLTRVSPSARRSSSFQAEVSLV
Experiment: cell-based or functional assay

B1: P136: C6-…(WPEG40K)-NH2 (SEQ ID NO: 44) (peptide)
peptide: Hexanoyl-HSDAVFTDNYTRLRKQVAAKKYLQSIKNSRTSPPPK-NH2
modifications: not fully specified (residue 36); printed as C6-HSDAVFTDNYTRLRKQVAAKKYLQSIKNSRTSPPPK(WPEG40K)-NH2
EC50 (nm), in vitro potency using DiscoveRx (cAMP): 15 nM
